Laboratory results published in patent US20260001934A1.
Each block holds one substance with its values, some of them ahead of it.

Experiments:
α39P AChR.CD8H.BBz CAAR [1] = target: α39P AChR.CD8H.BBz CAAR
α65P AChR.CD8H.BBz CAAR [2] = target: α65P AChR.CD8H.BBz CAAR
α208.GS.BBz [3] = target: α208.GS.BBz
α211.GS.BBz CAAR [4] = target: α211.GS.BBz CAAR
α210.GS.BBz CAAR [5] = target: α210.GS.BBz CAAR
α65P AChR.CD8H.BBz CAAR [6] = target: α65P AChR.CD8H.BBz CAAR; remark: listed apart in the source
α39P AChR.CD8H.BBz CAAR [7] = target: α39P AChR.CD8H.BBz CAAR; remark: listed apart in the source
α211.GS.BBz CAAR [8] = target: α211.GS.BBz CAAR; remark: listed apart in the source
α210.GS.BBz CAAR [9] = target: α210.GS.BBz CAAR; remark: listed apart in the source
α211.GS.BBz CAAR [10] = test: flow cytometry, mAb 210 plus secondary IgG-APC on lentivirally transduced primary human T cells, day 5; the same gate on NTD cells reads 0.20
α210.GS.BBz CAAR [11] = test: as above
α208.GS.BBz [12] = test: flow cytometry, mAb 210 plus secondary IgG-APC on lentivirally transduced primary human T cells, day 5; the same gate on NTD cells reads 0.20; the filing says this CAAR is not surface-expressed, so the low value shows absent target and not lack of affinity
α65P AChR.CD8H.BBz CAAR [13] = test: flow cytometry, mAb 210 staining of lentivirally transduced primary human CD3+ T cells, day 5; the same gate on NTD cells reads 0.32
α39P AChR.CD8H.BBz CAAR [14] = test: as above
α208.GS.BBz [15] = test: flow cytometry, mAb 210 plus anti-rat IgG-APC on transiently transfected 293T cells, day 2; non-transfected 293T reads 0%; the filing says this CAAR is not expressed on the cell surface, so the low value shows absent target and not lack of affinity
α211.GS.BBz CAAR [16] = test: flow cytometry, mAb 210 plus anti-rat IgG-APC on transiently transfected 293T cells, day 2; non-transfected 293T reads 0%
α210.GS.BBz CAAR [17] = test: as above
α65P AChR.CD8H.BBz CAAR [18] = test: flow cytometry, mAb 210 staining of lentivirally transduced Jurkat cells, day 3; the same gate on NTD cells reads 0.43
α39P AChR.CD8H.BBz CAAR [19] = test: as above

α39P AChR.CD8H.BBz CAAR, sequence (chain, as listed by the source): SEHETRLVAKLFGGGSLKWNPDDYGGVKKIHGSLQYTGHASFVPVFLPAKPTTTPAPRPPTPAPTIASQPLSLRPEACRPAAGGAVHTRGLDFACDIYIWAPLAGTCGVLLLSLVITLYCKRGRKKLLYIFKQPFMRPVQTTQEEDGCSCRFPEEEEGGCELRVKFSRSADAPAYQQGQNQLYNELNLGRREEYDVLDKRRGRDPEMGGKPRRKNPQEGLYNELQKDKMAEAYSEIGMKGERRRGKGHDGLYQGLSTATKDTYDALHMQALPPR

% GFP+ CAAR Jurkat NFAT-GFP cells after 12 h co-culture with TIB-175 (NTD Jurkat in the same figure: 4.1) (% (unit not given; gate frequency)) (α39P AChR.CD8H.BBz CAAR [1]): 53.7
% GFP+ CAAR Jurkat NFAT-GFP cells after 12 h co-culture with TIB-175 (NTD Jurkat in the same figure: 0.81) (% (unit not given; gate frequency)) (α65P AChR.CD8H.BBz CAAR [2]): 69
% GFP+ Jurkat reporter cells (CD3+ gate) after 12 h co-culture with TIB-175; the construct is a negative control that is not on the cell surface (α208.GS.BBz [3]): 2.88%
% GFP+ AChR CAAR Jurkat reporter cells (CD3+ gate) after 12 h co-culture with TIB-175 (α211.GS.BBz CAAR [4]): 55.7%
% GFP+ AChR CAAR Jurkat reporter cells (CD3+ gate) after 12 h co-culture with TIB-175 (α210.GS.BBz CAAR [5]): 53%
Substance: mAb 35 surface anti-AChR B cell receptor on TIB-175 hybridoma cells (antibody)

% GFP+ among CD3+-gated α65P CAAR Jurkat NFAT-GFP cells after 12 h co-culture, lower histogram (% (unit not given; gate frequency)) (α65P AChR.CD8H.BBz CAAR [6]): 41.4
% of all co-cultured cells in the CD3+ GFP+ quadrant, upper dot plot, upper right (% (unit not given; quadrant frequency)) (α65P AChR.CD8H.BBz CAAR [6]): 5.96
% GFP+ among CD3+-gated α39P CAAR Jurkat NFAT-GFP cells after 12 h co-culture, lower histogram (Nalm6 control: 4.1) (% (unit not given; gate frequency)) (α39P AChR.CD8H.BBz CAAR [7]): 6.23
% of all co-cultured cells in the CD3+ GFP+ quadrant, upper dot plot, upper right (Nalm6 control: 1.52) (% (unit not given; quadrant frequency)) (α39P AChR.CD8H.BBz CAAR [7]): 5.44
% GFP+ AChR CAAR Jurkat NFAT-GFP cells (CD3+ gate) after 12 h co-culture (α211.GS.BBz CAAR [8]): 91.4%
% GFP+ AChR CAAR Jurkat NFAT-GFP cells (CD3+ gate) after 12 h co-culture (α210.GS.BBz CAAR [9]): 89.5%
Substance: mAb 192 anti-AChR B cell receptor expressed on Nalm6 cells (antibody)

% of cells in the mAb 210-positive gate (% (unit not given; gate frequency)) (α211.GS.BBz CAAR [10]): 63.6
% of cells in the mAb 210-positive gate (% (unit not given; gate frequency)) (α210.GS.BBz CAAR [11]): 41.3
% of cells in the mAb 210-positive gate (% (unit not given; gate frequency)) (α208.GS.BBz [12]): 1.14
% of cells in the mAb 210-positive gate (% (unit not given; gate frequency)) (α65P AChR.CD8H.BBz CAAR [13]): 13.1
% of cells in the mAb 210-positive gate (% (unit not given; gate frequency)) (α39P AChR.CD8H.BBz CAAR [14]): 53.4
% AChR CAAR surface-positive 293T cells (α208.GS.BBz [15]): 3.91%
% AChR CAAR surface-positive 293T cells (α211.GS.BBz CAAR [16]): 17.1%
% AChR CAAR surface-positive 293T cells (α210.GS.BBz CAAR [17]): 26.3%
% of cells in the mAb 210-positive gate (% (unit not given; gate frequency)) (α65P AChR.CD8H.BBz CAAR [18]): 68.8
% of cells in the mAb 210-positive gate (% (unit not given; gate frequency)) (α39P AChR.CD8H.BBz CAAR [19]): 68.5
Substance: anti-AChR alpha subunit monoclonal antibody 210

% GFP+ among CD3+-gated α65P CAAR Jurkat NFAT-GFP cells after 12 h co-culture, lower histogram (% (unit not given; gate frequency)) (α65P AChR.CD8H.BBz CAAR [6]): 70.5
% of all co-cultured cells in the CD3+ GFP+ quadrant, upper dot plot, upper right (% (unit not given; quadrant frequency)) (α65P AChR.CD8H.BBz CAAR [6]): 6.95
% GFP+ among CD3+-gated α39P CAAR Jurkat NFAT-GFP cells after 12 h co-culture, lower histogram (Nalm6 control: 4.1) (% (unit not given; gate frequency)) (α39P AChR.CD8H.BBz CAAR [7]): 68.6
% of all co-cultured cells in the CD3+ GFP+ quadrant, upper dot plot, upper right (Nalm6 control: 1.52) (% (unit not given; quadrant frequency)) (α39P AChR.CD8H.BBz CAAR [7]): 17.8
% GFP+ AChR CAAR Jurkat NFAT-GFP cells (CD3+ gate) after 12 h co-culture (α211.GS.BBz CAAR [8]): 94.6%
% GFP+ AChR CAAR Jurkat NFAT-GFP cells (CD3+ gate) after 12 h co-culture (α210.GS.BBz CAAR [9]): 91.7%
Substance: mAb 195 anti-AChR B cell receptor expressed on Nalm6 cells (antibody)
